Laboratory results published in publication PMC8247607.

T1: MSL2 CXC domain (CXCvir) (Drosophila virilis, UniProt O76733 514-567)
T1 sequence: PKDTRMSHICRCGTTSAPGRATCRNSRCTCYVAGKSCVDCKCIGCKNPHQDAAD


Target: T1, MSL2 CXC domain (CXCvir)
Test: NMR 1H-15N HSQC titration

Binder | Kd [µM]
S12 mutant (dsDNA) DNA 1: ATGAAAAAAATG DNA 2: CATTTTTTTCAT | 2.4
S12 (dsDNA) DNA 1: ATGAGCGAGATG DNA 2: CATCTCGCTCAT | 2.8
